B1: L3G5 anti-human Trop2 scFv (scFv, V domains shown)
VH: QLQLQESGPGLLKPSETLSLICTVSGGSISSHYWSWIRQTPGKGLEWIGWIHSSGITNYNPSLMGRVTMSVDTSKNQFPLKVNSVTAADTAVYYCARGLRLTDDAFDIWGQGTMVTVSS
VL: QSALTQPASVSGSPGQSITISCTGTSSDVGGYNYVSWYQQHPGKAPKLMIHDVSNRPSGVSNRFFGSKSGNTASLTISGLQAEDEADYYCSSYTSSNTLAFGGGTKLTVL
notes: Tested as an scFv in a periplasmic extract of TG1 (pComb3sc phagemid) and detected with anti-HA HRP
B2: L2C8 anti-human Trop2 scFv (scFv, V domains shown)
VH: EVQLVESGGALVQRGGSLRLSCSASGFSVRNNYITWVRQAPGKGLEWVAIVFPGGSSYHADSVKGRFTISRDLSKNSVYLEMNSLREDDTGVYFCARDSGSPLWRGHFQYWGQGTTVTVSS
VL: QSVLTQPPSVSGAPGQRVTISCTGSSANIGAGYDVHWYQQLPGTAPKLLIYDNNKRPSGIPDRFSGSNSGTSATLGITGLQTGDEADYYCGTWDTSLSAWVFGGGTRLTVL
notes: as for B1
B3: K2F5 anti-human Trop2 scFv (scFv, V domains shown)
VH: QVQLVQSGAEVKKPGESLTISCKSSGDNFSTNWIGWVRQMPGKGLEWMGIIYPGDSDSRYSPSFEGQVTISADKSISTAYLQWSSLKASDTAMYYCARYQGSTTPFDYWGQGTTVTVSS
VL: not shown
notes: as for B1
B4: L2C9 anti-human Trop2 scFv (scFv, V domains shown)
VH: EVQLLESGGGVVQPGMSLRVSCAASGFTFSNYGMHWVRQAPGKGLEWVGIIWSDGTYTYYGDSVQGRFTISRDNSENTLHLQMNSLRAEDTAVYYCAKSLTPLGGSFRIGDWGQGTLVTVSS
VL: QSVLTQPPSVSGAPGQRVTISCTGSSSNIGAGYDVHWYQQLPGTAPKLLIYDNTNRPSGVPDRFSGSKSGTSASLAITGLQADDEGDYYCQSYDSRLNALVFGGGTKLTVL
notes: as for B1

The assay has as its target T1, 重组人Trop2-avi-his抗原蛋白 (recombinant human Trop2 extracellular domain with C-terminal avi-tag and 6×his-tag) (human, UniProt P09758 27-274).
T1 construct: The protein was coated unbiotinylated on the ELISA plate; A form biotinylated at the avi-tag was used for panning and for CAR staining; also called 重组人Trop2蛋白; Trop2蛋白
T1 sequence: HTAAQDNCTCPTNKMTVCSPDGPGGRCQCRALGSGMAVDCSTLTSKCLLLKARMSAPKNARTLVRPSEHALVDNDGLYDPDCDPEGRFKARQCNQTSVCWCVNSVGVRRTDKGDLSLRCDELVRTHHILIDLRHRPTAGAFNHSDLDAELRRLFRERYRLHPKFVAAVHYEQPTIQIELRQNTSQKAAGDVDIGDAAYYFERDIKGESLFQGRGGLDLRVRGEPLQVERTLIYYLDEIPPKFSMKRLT
Description: ELISA: recombinant human Trop2 coated at 100 ng/well, scFv periplasmic extract, anti-HA HRP detection, OD450. For orientation: An ELISA detects its analyte on a solid surface through an enzyme-linked reagent.
Turning to B1, the binding result is on record as “binds”.
The entry for B2 is “binds”; for B3 it is “binds”.
The entry for B4 is “binds”.
